The term Kd denotes the concentration at which binding is half-saturated. Low values mean higher affinity, high ones lower affinity. The term koff denotes the rate constant with which the complex falls apart. As a reminder, the kon is a measure of how fast the partners come together.

For the experiment, the target named is Mouse TREM-1 analyte (in house, his tagged) (mouse) (UniProt Q9JKE2). The experiment in a line: SPR (Biacore T200, 25 C), MAB1187 captured on anti rat Fc, his tagged mouse TREM-1 as analyte, 1:1 model. In general terms: SPR reads the build-up and loss of mass on a sensor chip optically.
Chain of UniProt Q9JKE2 (Q9JKE2 21-202 limits assumed): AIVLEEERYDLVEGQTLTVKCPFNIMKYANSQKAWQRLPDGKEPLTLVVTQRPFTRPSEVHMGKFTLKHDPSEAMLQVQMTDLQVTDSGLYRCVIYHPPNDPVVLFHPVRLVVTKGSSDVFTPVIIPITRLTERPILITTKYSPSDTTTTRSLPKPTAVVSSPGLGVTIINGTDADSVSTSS

“MAB1187, anti-mouse TREM1 monoclonal antibody (R&D Systems, clone 174031)” showed a Kd of 26 nM, a koff of 0.0051 s⁻¹ and a kon of 200000 M⁻¹ s⁻¹.

The values above are taken from US20230406924A1.
